Laboratory results as given in the supplement of paper PMC10126150.
± gives the standard deviation of the averaged measurements.

The sequences below were run on ATP (assay: switch fluorescence ratio, 500 uM ATP over buffer (Cy3 cluster intensity, sum of 5 cycles each) (fold (ratio)); higher = stronger signal-on switching upon ATP binding; sequences stand for … in TCGTCGGCAGCGTCAGATGTGTATAAGAGACAGTTTTTTTTTTTTTTTTTTTTTTTTT…TC). Conditions: aptamer strand: ATP DNA aptamer (quencher-CACCTGGGGGAGTATTGCGGAGGAAGG + anchor), 100 nM annealed; ATP concentration: 500 uM.
In short: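 Exposure to 500 uM ATP lasted 15 min at 22 °C before imaging, and a selection-buffer image was taken beforehand, for Cy3-labelled switching-strand clusters on a modified Illumina MiSeq flow-cell annealed to 100 nM quencher-labelled ATP aptamer. Five buffer/ATP cycles were run with NaOH stripping and re-annealing between them. The fluorescence ratio per cluster is summed target-cycle over summed buffer-cycle Cy3 intensity, averaged per switch-domain sequence. Clusters outside 100-1000 RFU were excluded.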
In the case of CTGGGGGTCA, the switch fluorescence ratio is reported as 1.04 ± 0.026. Work on CGCGGGAGGG yielded a switch fluorescence ratio of 1.04 ± 0.022. For AAGGGTGTCA, the switch fluorescence ratio was 1.022 ± 0.0032. In the case of ATTTGCTTGT, the switch fluorescence ratio is reported as 1.01 ± 0.021. With TGTGGGATTG the switch fluorescence ratio was 0.993 ± 0.015. With CACGCAGGGT the switch fluorescence ratio was 1.11 ± 0.12. Work on TTAGGCTGAT yielded a switch fluorescence ratio of 0.981 ± 0.02. ACCCCGGTCG gave a switch fluorescence ratio of 1.167 ± 0.0062. Sequence CGGAGGCAAG has a switch fluorescence ratio of 1.14 ± 0.045. CGGGAACGGT was tested, and the switch fluorescence ratio was 1.01 ± 0.026. TTACATGTTC showed a switch fluorescence ratio of 0.996 ± 0.025. Sequence CGGAGAATAG has a switch fluorescence ratio of 1.234 ± 0.012. ACGTAGTGTC showed a switch fluorescence ratio of 1.03 ± 0.018. In the case of ATGCTTATAC, the switch fluorescence ratio is reported as 2.31 ± 0.36. Sequence TAATGCCAGG has a switch fluorescence ratio of 1.088 ± 0.0038. GTTTGCACTG was tested, and the switch fluorescence ratio was 1.04 ± 0.021. TGGGTCAGTG gave a switch fluorescence ratio of 1 ± 0.021. Work on AACAGTGATA yielded a switch fluorescence ratio of 1.01 ± 0.027. CTTGGTAATA gave a switch fluorescence ratio of 1.062 ± 0.0066. CTCGTTGAAA was tested, and the switch fluorescence ratio was 0.9779 ± 0.0065. AGAAGTTGGG was tested, and the switch fluorescence ratio was 0.993 ± 0.02. For TCCCTCCCCT, the switch fluorescence ratio was 1.25 ± 0.056. TTTATCCTTT showed a switch fluorescence ratio of 0.98 ± 0.025. ATTATTCGGT gave a switch fluorescence ratio of 0.986 ± 0.013. Work on TTTCGGGTTG yielded a switch fluorescence ratio of 1.02 ± 0.042. In the case of CTTTAGGGTG, the switch fluorescence ratio is reported as 1.06 ± 0.047. Work on GGGAGGAGGT yielded a switch fluorescence ratio of 0.98 ± 0.024. For TTTCTTTAGT, the switch fluorescence ratio was 1 ± 0.04. For TAAATATTT, the switch fluorescence ratio was 0.996 ± 0.025. For ATAAGGCTTG, the switch fluorescence ratio was 0.968 ± 0.03. TGGTAGATT gave a switch fluorescence ratio of 1.01 ± 0.046. Work on CAGGTGAGTT yielded a switch fluorescence ratio of 1.34 ± 0.32. For CGAAGCTTTT, the switch fluorescence ratio was 1.089 ± 0.003. In the case of AACCTGCTAA, the switch fluorescence ratio is reported as 1.057 ± 0.0014. Sequence ATGTGAGCGG has a switch fluorescence ratio of 1.01 ± 0.038. Work on ATGGTATGCT yielded a switch fluorescence ratio of 0.992 ± 0.022. In the case of TCAAGTTTG, the switch fluorescence ratio is reported as 1.011 ± 0.0069. For TGTCGGGGAG, the switch fluorescence ratio was 1.01 ± 0.018. Work on ATATTAAGTT yielded a switch fluorescence ratio of 1.01 ± 0.003. Sequence TAATAAAAAA has a switch fluorescence ratio of 0.9772 ± 0.0069. With CGAGGGGTAG the switch fluorescence ratio was 0.996 ± 0.026. For CATCGCGGTT, the switch fluorescence ratio was 1.07 ± 0.022. GAAGTCGAAT was tested, and the switch fluorescence ratio was 1.014 ± 0.0091. With ACGTGGGGTC the switch fluorescence ratio was 1.02 ± 0.022. TGTTGAGCTC was tested, and the switch fluorescence ratio was 0.9936 ± 0.0084. In the case of TATTGAGAGA, the switch fluorescence ratio is reported as 1.02 ± 0.053. For TCCATTGAAC, the switch fluorescence ratio was 1.017 ± 0.0026. In the case of AAGTTGTGTT, the switch fluorescence ratio is reported as 0.996 ± 0.033. Work on GGGCTATGTA yielded a switch fluorescence ratio of 0.993 ± 0.0095. ATGGTTTGAG showed a switch fluorescence ratio of 0.997 ± 0.026. With AATTGGCCGG the switch fluorescence ratio was 0.989 ± 0.011. CAATGTGTTT showed a switch fluorescence ratio of 1.01 ± 0.035. TGTGATTTCG showed a switch fluorescence ratio of 0.945 ± 0.048. For GAATCGGGGA, the switch fluorescence ratio was 1.012 ± 0.0031. For CGCTGTGAAG, the switch fluorescence ratio was 1.02 ± 0.012. TTCGGCGTTG gave a switch fluorescence ratio of 0.972 ± 0.02. In the case of ATTACTAAAT, the switch fluorescence ratio is reported as 1.01 ± 0.02. For ATCATTGAGA, the switch fluorescence ratio was 0.9972 ± 0.0043. Work on TGATTCTTTT yielded a switch fluorescence ratio of 0.974 ± 0.037. Work on GGTTTCTCGT yielded a switch fluorescence ratio of 0.967 ± 0.04. ATAGGGGTGG showed a switch fluorescence ratio of 1.03 ± 0.018. Work on TTGTGCGTGG yielded a switch fluorescence ratio of 0.971 ± 0.015. ATTGGGCTTC was tested, and the switch fluorescence ratio was 1.01 ± 0.015. Work on GGTGATAGTG yielded a switch fluorescence ratio of 0.983 ± 0.024. For TATCCTGGCT, the switch fluorescence ratio was 0.9961 ± 0.0089. Sequence TGTTTTAGGA has a switch fluorescence ratio of 0.993 ± 0.015. TGGCAATTTG was tested, and the switch fluorescence ratio was 1 ± 0.033. TCCTTTAAAT showed a switch fluorescence ratio of 1.13 ± 0.0032. ATTTCTTTTT showed a switch fluorescence ratio of 1.03 ± 0.0055. ATTTTTCTTC was tested, and the switch fluorescence ratio was 1.035 ± 0.0046. CAAATAAAGG was tested, and the switch fluorescence ratio was 1.01 ± 0.025. Work on TTCACCACTT yielded a switch fluorescence ratio of 1.01 ± 0.025. In the case of AGAAAAACAT, the switch fluorescence ratio is reported as 1.034 ± 0.0073. Sequence TTTGAGGTCG has a switch fluorescence ratio of 1.06 ± 0.063. For GATTGGCCCG, the switch fluorescence ratio was 1.11 ± 0.13. Sequence TTGCACACGC has a switch fluorescence ratio of 1.26 ± 0.08. GAGGGGATTG showed a switch fluorescence ratio of 0.986 ± 0.047. Work on ACAGGAGAC yielded a switch fluorescence ratio of 1.0379 ± 0.00024. For TAAGGTAGGT, the switch fluorescence ratio was 0.993 ± 0.016. Sequence GATGTACCCC has a switch fluorescence ratio of 1.114 ± 0.0023. TTATTTTTTT showed a switch fluorescence ratio of 1 ± 0.033. For GCATGATCAA, the switch fluorescence ratio was 0.997 ± 0.031. Work on TTTGCGCGCG yielded a switch fluorescence ratio of 0.992 ± 0.021. CAAGCGATGG showed a switch fluorescence ratio of 1.63 ± 0.065. Sequence AGGGGTTTAT has a switch fluorescence ratio of 0.988 ± 0.021. With AGGTCTAATG the switch fluorescence ratio was 1.01 ± 0.03. With CGGTGGCTGC the switch fluorescence ratio was 0.967 ± 0.011. With GGCCTTATCG the switch fluorescence ratio was 0.991 ± 0.048. TGGATGACGG showed a switch fluorescence ratio of 0.972 ± 0.13. ATTTAGGGAT was tested, and the switch fluorescence ratio was 1.02 ± 0.051. For TCAGAAGGTG, the switch fluorescence ratio was 1.59 ± 0.079. GATATTTTCG showed a switch fluorescence ratio of 1.01 ± 0.035. Sequence ATGAGATTTT has a switch fluorescence ratio of 0.988 ± 0.015. Work on GGGGTTCC yielded a switch fluorescence ratio of 0.998 ± 0.0092. In the case of TGGGTGCCGG, the switch fluorescence ratio is reported as 0.929 ± 0.11. GTATGTCGAG was tested, and the switch fluorescence ratio was 0.988 ± 0.014. GCCGTTGGGG gave a switch fluorescence ratio of 0.99 ± 0.031. With TCTGGGGCGC the switch fluorescence ratio was 0.984 ± 0.015. CGTTGGAGCG showed a switch fluorescence ratio of 1 ± 0.03. TAATCTTTGG gave a switch fluorescence ratio of 0.961 ± 0.035.
